PMC3081611

Target: CurA ACPI-ACPII-ACPIII tridomain
Experiment: negative stain electron microscopy

Q: What does the source list for “CurA ACPI-ACPII-ACPIII tridomain (domain or fragment)”?
A: percent existing as dimers: 25%; stoichiometry N: 2
